As a reminder, the Kd is the constant that tells how readily two partners part at equilibrium. A low value points to a tighter complex.

Test in all cases: Kd (EC50 corrected by depletion factor)
One data set has as its target T1, DIS3L2 (UniProt Q8IYB7).
T1 sequence: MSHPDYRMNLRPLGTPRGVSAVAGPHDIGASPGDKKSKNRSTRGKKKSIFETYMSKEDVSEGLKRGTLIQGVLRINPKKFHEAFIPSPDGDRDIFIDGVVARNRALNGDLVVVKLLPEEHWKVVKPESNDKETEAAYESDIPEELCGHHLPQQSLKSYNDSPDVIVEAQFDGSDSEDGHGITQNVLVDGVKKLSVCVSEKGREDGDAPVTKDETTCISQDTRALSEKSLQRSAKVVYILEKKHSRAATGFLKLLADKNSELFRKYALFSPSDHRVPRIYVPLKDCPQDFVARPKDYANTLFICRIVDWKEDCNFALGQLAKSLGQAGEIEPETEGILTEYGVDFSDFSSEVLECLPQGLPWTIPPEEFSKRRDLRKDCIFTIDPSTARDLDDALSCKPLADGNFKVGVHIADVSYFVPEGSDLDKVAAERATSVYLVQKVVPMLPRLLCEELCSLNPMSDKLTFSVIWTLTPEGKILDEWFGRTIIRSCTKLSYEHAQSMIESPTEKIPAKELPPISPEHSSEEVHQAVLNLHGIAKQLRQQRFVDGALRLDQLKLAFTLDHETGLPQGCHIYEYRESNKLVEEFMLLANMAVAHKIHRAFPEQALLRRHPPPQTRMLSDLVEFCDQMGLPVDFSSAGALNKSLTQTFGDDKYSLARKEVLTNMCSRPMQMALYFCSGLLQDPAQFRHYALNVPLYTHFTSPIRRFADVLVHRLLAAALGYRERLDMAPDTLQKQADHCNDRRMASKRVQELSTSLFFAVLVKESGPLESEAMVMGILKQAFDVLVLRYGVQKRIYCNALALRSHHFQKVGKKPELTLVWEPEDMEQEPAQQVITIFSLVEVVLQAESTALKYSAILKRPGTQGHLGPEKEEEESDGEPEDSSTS
On the procedure: (§1)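 Competition-binding assay: HEK293-FT cell lysate (2.5 mg protein) pre-incubated 1 h at 4°C with free motif-containing RNA oligos (0 to 30 µM, 12 doses), then pulled down with the same 5'-amino-C6 RNA oligos immobilised on NHS-Sepharose beads (30 min, 4°C). Bound proteins were quantified by label-free LC-MS/MS and normalised to the water control. EC50 came from a four-parameter log-logistic fit; Kd = EC50 x depletion factor. Random/reversed control probes are dropped.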

The target of another data set is T2, LIN28B (UniProt Q6ZN17).
T2 sequence: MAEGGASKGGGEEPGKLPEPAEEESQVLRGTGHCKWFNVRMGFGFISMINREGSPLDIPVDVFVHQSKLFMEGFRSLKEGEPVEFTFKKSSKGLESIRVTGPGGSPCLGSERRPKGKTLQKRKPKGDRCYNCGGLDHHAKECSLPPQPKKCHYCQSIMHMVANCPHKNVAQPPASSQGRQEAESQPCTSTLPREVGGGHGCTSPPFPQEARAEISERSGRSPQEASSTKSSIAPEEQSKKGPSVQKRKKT
The procedure:
as §1

Another data set has as its target T3, SKIV2L2 (UniProt P42285).
T3 sequence: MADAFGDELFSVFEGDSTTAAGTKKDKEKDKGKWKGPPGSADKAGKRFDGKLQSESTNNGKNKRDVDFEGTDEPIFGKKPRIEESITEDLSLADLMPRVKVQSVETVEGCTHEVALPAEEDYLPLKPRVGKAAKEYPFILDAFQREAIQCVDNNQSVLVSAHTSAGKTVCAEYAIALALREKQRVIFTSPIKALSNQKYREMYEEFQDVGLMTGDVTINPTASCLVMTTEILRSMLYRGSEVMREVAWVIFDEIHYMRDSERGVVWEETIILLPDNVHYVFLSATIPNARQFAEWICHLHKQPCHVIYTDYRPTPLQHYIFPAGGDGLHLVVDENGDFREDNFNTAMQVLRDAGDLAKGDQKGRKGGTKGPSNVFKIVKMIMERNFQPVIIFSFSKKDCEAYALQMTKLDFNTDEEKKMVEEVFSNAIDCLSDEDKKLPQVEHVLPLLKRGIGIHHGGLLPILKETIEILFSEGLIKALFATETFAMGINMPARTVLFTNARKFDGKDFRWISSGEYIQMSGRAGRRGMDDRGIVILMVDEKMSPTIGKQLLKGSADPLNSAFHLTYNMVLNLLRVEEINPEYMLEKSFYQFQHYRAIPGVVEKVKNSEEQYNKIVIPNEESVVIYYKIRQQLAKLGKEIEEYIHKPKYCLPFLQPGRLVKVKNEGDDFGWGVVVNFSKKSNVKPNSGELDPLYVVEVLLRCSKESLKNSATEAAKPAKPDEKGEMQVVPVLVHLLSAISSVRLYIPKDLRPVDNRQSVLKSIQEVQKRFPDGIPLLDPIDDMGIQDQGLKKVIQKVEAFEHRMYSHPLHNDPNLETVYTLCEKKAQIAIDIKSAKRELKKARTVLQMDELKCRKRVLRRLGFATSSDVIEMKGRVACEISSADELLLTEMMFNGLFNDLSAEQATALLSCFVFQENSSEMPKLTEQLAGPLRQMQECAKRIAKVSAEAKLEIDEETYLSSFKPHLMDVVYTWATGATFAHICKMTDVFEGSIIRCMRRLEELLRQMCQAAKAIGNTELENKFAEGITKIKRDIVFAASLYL
The procedure: as §1

Consider AAUAAA, for which the dissociation constant Kd in the data set with DIS3L2 worked out at 383 nM; in the data set with LIN28B, 610 nM; with SKIV2L2, 393 nM.

In the case of CUGUCCU, the dissociation constant Kd is 774 nM in the data set with DIS3L2, 1220 nM in the data set with LIN28B and 2450 nM in the data set with SKIV2L2.

In the case of UAUUUAU, the Kd with DIS3L2 came to 290 nM; with LIN28B it was 1100 nM; in the data set with SKIV2L2 it was 202 nM.
